Assay results published in patent publication US20220308061A1.

Biological target: NY-ESO-1 peptide presented in the stimulated PBMC culture
Test: cell-based or functional assay

NY-ESO TCR (clone 1G4)
percent of CD8+ T cells CD137+/NGFR+ after antigen stimulation (% of CD8+ T cells): 0.69 | percent of CD8+ T cells IFNγ+/NGFR+ after antigen stimulation (% of CD8+ T cells): 0.47 | percent of CD8+ T cells TNFα+/NGFR+ after antigen stimulation (% of CD8+ T cells): 0.41
